# Measurements reported in patent US7470669B2, “Isolated polypeptide comprising a leptin fragment” (Serono Genetics Institute, S.A., priority 1999, dated 2008).
# Assay: Plasma leptin concentration after subcutaneous leptin injection in ob/ob mice
# Format: in vivo, mouse
# Details: 50 ng s.c., at 2 h
# Text: Na ^125I was purchased from Amersham-Pharmacia (Piscataway, N.J.; Les Ulis, France). Oleic acid, bovine serum albumin (A2153) (BSA), were obtained from Sigma (St. Louis, Mo.; St. Quentin Fallavier, France). Sodium heparin was purchased from Choay laboratories (Gentilly, France). Fugene was purchased from Roche Boehringer Mannheim (Indianapolis, Ind.), and Superfect from Qiagen (Valencia, Calif.). Zeocin was obtained from Invitrogen (Carlsbad, Calif.). Suramin was a gift from Bayer Pharmaceuticals (Puteaux, France). Enzymatic kits for the determination of TG and FFA were obtained from Roche-Boehringer Mannheim (Meylan, France) and WAKO (Richmond, Va.; Unipath, Dardilly, France), respectively. Dulbecco's modified Eagle's medium (DMEM), trypsin, penicillin-streptomycin, glutamine, and fetal bovine serum (FBS) were purchased from Life Technologies, Inc (Grand Island, N.Y.; Eragny, France). RIA kits for plasma leptin measurements were obtained from Linco (St. Louis, Mo.). […]
# This injection caused a transient increase in plasma leptin concentrations up to 3.25±0.03 ng/mL at 2 h; baseline values were recorded 4 h after injection. […]
substance,measurement,value
"leptin: plasma protein of 16 kDa produced by adipocytes; recombinant human or mouse leptin, species depends on the experiment",plasma leptin concentrations,3.25 ± 0.03 ng/mL
